Measured values taken from patent US20110300138A1 (published 2011).
Values belong to the substance of their own block, whether it stands above or below them.

Experiments:
[1] = target: TSHR260-alkaline phosphatase (TSHR260-AP) (human) (UniProt P05187); test: TSHR260-AP bridge ELISA, full length TSHR on wells; 0.1 µg/mL, diluted in HBD
[2] = target: TSHR260-alkaline phosphatase (TSHR260-AP) (human) (UniProt P05187); test: TSHR260-AP bridge ELISA, full length TSHR on wells; 10 µg/mL, diluted in HBD
[3] = target: TSHR260-alkaline phosphatase (TSHR260-AP) (human) (UniProt P05187); test: TSHR260-AP bridge ELISA, full length TSHR on wells; 250 µg/mL, diluted in HBD
[4] = target: TSHR260-alkaline phosphatase (TSHR260-AP) (human) (UniProt P05187); test: TSHR260-AP bridge ELISA, full length TSHR on wells; 10 µg/mL, diluted in assay buffer
[5] = target: TSH receptor (TSHR) coated on tubes (human) (UniProt P16473); test: inhibition of 125I-K1-70 IgG binding to TSHR coated tubes; sample 0.01 µg/mL in HBD serum pool
[6] = target: TSH receptor (TSHR), full length human, coated on tubes (human) (UniProt P16473); test: inhibition of 125I-TSH binding to TSHR coated tubes; 0.003 µg/mL, diluted in HBD serum pool
[7] = target: TSH receptor (TSHR), full length human, coated on tubes (human) (UniProt P16473); test: inhibition of 125I-TSH binding to TSHR coated tubes; 0.001 µg/mL, diluted in HBD serum pool
[8] = target: human thyroid stimulating hormone receptor (TSHR), full length (human) (UniProt P16473); test: 125I-K1-18 Fab competition, TSHR coated tubes; 0.001 µg/mL in assay buffer
[9] = target: TSHR260-alkaline phosphatase (TSHR260-AP) (human) (UniProt P05187); test: TSHR260-AP bridge ELISA, full length TSHR on wells; 0.005 µg/mL, diluted in assay buffer
[10] = target: human TSH receptor (full length), coated on tubes (human) (UniProt P16473); test: inhibition of 125I-K1-70 Fab (competitor) binding to TSHR coated tubes; 0.003 µg/mL in HBD serum pool
[11] = target: human TSH receptor (full length), coated on tubes (human) (UniProt P16473); test: inhibition of 125I-K1-70 Fab (competitor) binding to TSHR coated tubes; 0.03 µg/mL in HBD serum pool
[12] = target: TSHR260-alkaline phosphatase (TSHR260-AP) (human) (UniProt P05187); test: TSHR260-AP bridge ELISA, full length TSHR on wells; 0.1 µg/mL, diluted in assay buffer
[13] = target: human thyroid stimulating hormone receptor (TSHR), full length (human) (UniProt P16473); test: 125I-K1-18 Fab competition, TSHR coated tubes; 0.01 µg/mL in HBD
[14] = target: TSHR260-alkaline phosphatase (TSHR260-AP) (human) (UniProt P05187); test: TSHR260-AP bridge ELISA, full length TSHR on wells; 0.005 µg/mL, diluted in HBD
[15] = target: TSHR260-AP (fusion protein consisting of a fragment of human TSHR, amino acids 22-260, with alkaline phosphatase) (human); test: bridging ELISA: full length TSHR on wells, TSHR260-AP in liquid phase; IgG 0.1 µg/mL in HBD serum
[16] = target: TSHR260-AP (fusion protein consisting of a fragment of human TSHR, amino acids 22-260, with alkaline phosphatase) (human); test: bridging ELISA: full length TSHR on wells, TSHR260-AP in liquid phase; IgG 0.01 µg/mL in HBD serum
[17] = target: TSHR260-AP (fusion protein consisting of a fragment of human TSHR, amino acids 22-260, with alkaline phosphatase) (human); test: as above; remark: listed apart in the source
[18] = target: TSHR260-AP (fusion protein consisting of a fragment of human TSHR, amino acids 22-260, with alkaline phosphatase) (human); test: bridging ELISA: full length TSHR on wells, TSHR260-AP in liquid phase; IgG 0.1 µg/mL in HBD serum; remark: listed apart in the source
[19] = target: TSHR260-AP (fusion protein consisting of a fragment of human TSHR, amino acids 22-260, with alkaline phosphatase) (human); test: bridging ELISA: full length TSHR on wells, TSHR260-AP in liquid phase; IgG 0.5 µg/mL in HBD serum
[20] = target: TSHR260-AP (fusion protein consisting of a fragment of human TSHR, amino acids 22-260, with alkaline phosphatase) (human); test: bridging ELISA: full length TSHR on wells, TSHR260-AP in liquid phase; IgG 1 µg/mL in HBD serum
[21] = target: TSHR260-AP (fusion protein consisting of a fragment of human TSHR, amino acids 22-260, with alkaline phosphatase) (human); test: bridging ELISA: full length TSHR on wells, TSHR260-AP in liquid phase; IgG 0.005 µg/mL in HBD serum
[22] = target: TSHR260-AP (fusion protein consisting of a fragment of human TSHR, amino acids 22-260, with alkaline phosphatase) (human); test: as above; remark: listed apart in the source
[23] = target: TSHR260-AP (fusion protein consisting of a fragment of human TSHR, amino acids 22-260, with alkaline phosphatase) (human); test: bridging ELISA: full length TSHR on wells, TSHR260-AP in liquid phase; IgG 10 µg/mL in HBD serum
[24] = target: TSHR260-AP (fusion protein consisting of a fragment of human TSHR, amino acids 22-260, with alkaline phosphatase) (human); test: bridging ELISA: full length TSHR on wells, TSHR260-AP in liquid phase; IgG 0.5 µg/mL in HBD serum; remark: listed apart in the source
[25] = target: TSHR260-AP (fusion protein consisting of a fragment of human TSHR, amino acids 22-260, with alkaline phosphatase) (human); test: bridging ELISA: full length TSHR on wells, TSHR260-AP in liquid phase; IgG 0.05 µg/mL in HBD serum
[26] = target: TSHR260-AP (fusion protein consisting of a fragment of human TSHR, amino acids 22-260, with alkaline phosphatase) (human); test: bridging ELISA: full length TSHR on wells, TSHR260-AP in liquid phase; IgG 1 µg/mL in HBD serum; remark: listed apart in the source
[27] = target: TSHR260-AP (fusion protein consisting of a fragment of human TSHR, amino acids 22-260, with alkaline phosphatase) (human); test: bridging ELISA: full length TSHR on wells, TSHR260-AP in liquid phase; IgG 0.05 µg/mL in HBD serum; remark: listed apart in the source
[28] = target: TSHR260-AP (fusion protein consisting of a fragment of human TSHR, amino acids 22-260, with alkaline phosphatase) (human); test: bridging ELISA: full length TSHR on wells, TSHR260-AP in liquid phase; IgG 10 µg/mL in HBD serum; remark: listed apart in the source
[29] = target: TSH receptor (full length human TSHR) coated on tubes (human) (UniProt P16473); test: 125I-TSH binding to TSHR coated tubes, in assay buffer, no inhibitor
[30] = target: TSH receptor (TSHR), full length human, coated on tubes (human) (UniProt P16473); test: binding of 125I-TSH to TSHR coated tubes, in assay buffer, no competitor
[31] = target: TSH receptor (TSHR), full length human, coated on tubes (human) (UniProt P16473); test: as above; remark: listed apart in the source
[32] = target: TSH receptor (full length human TSHR) coated on tubes (human) (UniProt P16473); test: 125I-TSH binding to TSHR coated tubes, in HBD serum pool, no inhibitor
[33] = target: TSH receptor (TSHR), full length human, coated on tubes (human) (UniProt P16473); test: binding of 125I-TSH to TSHR coated tubes, in HBD serum pool, no competitor
[34] = target: TSHR coated tubes (full length TSHR) (human) (UniProt P16473); test: 125I-TSH binding to TSHR coated tubes in assay buffer only (no competitor)

Mean absorbance at 405 nm (absorbance at 405 nm) [1]: -0.007
Mean absorbance at 405 nm (absorbance at 405 nm) [2]: 0.01
Mean absorbance at 405 nm (absorbance at 405 nm) [3]: 0.031
Mean absorbance at 405 nm (absorbance at 405 nm) [4]: 0.034
Inhibition of binding (%) [5]: 34%
Inhibition of binding (%) [6]: -7.9%
Inhibition of binding (%) [7]: -11.2%
Inhibition of binding (%) [8]: -0.7%
Mean absorbance at 405 nm (absorbance at 405 nm) [9]: -0.004
Inhibition of binding (%) [10]: 11.5%
Inhibition of binding (%) [11]: 66.8%
Mean absorbance at 405 nm (absorbance at 405 nm) [12]: 0.015
Inhibition of binding (%) [13]: 20.4%
Mean absorbance at 405 nm (absorbance at 405 nm) [14]: -0.013
Substance: M22 Fab

Mean absorbance at 405 nm (absorbance at 405 nm) [15]: 0.599
Mean absorbance at 405 nm (absorbance at 405 nm) [16]: 0.064
Mean absorbance at 405 nm (absorbance at 405 nm) [17]: 0.043
Mean absorbance at 405 nm (absorbance at 405 nm) [18]: 0.548
Mean absorbance at 405 nm (absorbance at 405 nm) [19]: 1.02
Mean absorbance at 405 nm (absorbance at 405 nm) [20]: 1.09
Mean absorbance at 405 nm (absorbance at 405 nm) [21]: 0.032
Mean absorbance at 405 nm (absorbance at 405 nm) [22]: 0.011
Mean absorbance at 405 nm (absorbance at 405 nm) [23]: 1.36
Mean absorbance at 405 nm (absorbance at 405 nm) [24]: 1.09
Mean absorbance at 405 nm (absorbance at 405 nm) [25]: 0.292
Mean absorbance at 405 nm (absorbance at 405 nm) [26]: 1.17
Mean absorbance at 405 nm (absorbance at 405 nm) [27]: 0.332
Mean absorbance at 405 nm (absorbance at 405 nm) [28]: 1.27
Substance: M22 IgG (human monoclonal thyroid stimulating autoantibody, hMAb TSHR1)

% binding [29]: 10.8%
^125I-TSH binding (%) [30]: 11%
^125I-TSH binding (%) [31]: 13.4%
% binding [32]: 12.4%
^125I-TSH binding (%) [33]: 11.5%
% of ^125I-TSH binding [34]: 12.4%
Substance: ^125I-TSH (ligand)
